Experimental data published in PMC8495200, “Domain Organization of the UBX Domain Containing Protein 9 and Analysis of Its Interactions With the Homohexameric AAA + ATPase p97 (Valosin-Containing Protein)” (Frontiers in Cell and Developmental Biology, 2021).
Values joined by “and” are separate entries in the source; they are usually repeats but may differ in a detail not shown here. Identical values can stand only once.

Biological target: the molecule itself
Test: native gel or EMSA; Blue Native PAGE, purified recombinant non-tagged proteins in 1 x PBS, 1 mM DTT, 1 mM ATP; 4-16% Bis-Tris gels, cold room, Coomassie staining

B1: p97 (valosin-containing protein), D. discoideum, recombinant (enzyme, UniProt P90532 1-793, looked up)
chain: MATIEDTSKDNNNPILERKKAPNRLFVEEAINDDNSVVTLNPETMDQLQFFRGDTLLIKGKKRRDTVCIVLSDPTIDPSKIRMNKVVRNNLRVRLGDMISVHQCSDVKYGKRIHVLPIDDTIEGLSGNLFDLYLKPYFLEAYRPVRKGDLFLVRGGMRAVEFKVVETDPGEYCIVAPETFIHCEGEAVKREDEDRLDEVGYDDIGGVRKQLGQIRELVELPLRHPQLFKNIGVKPPKGILLYGPPGCGKTMIARAVANETGAFFFLINGPEIMSKLAGESESNLRKAFEEAEKNAPSIIFIDEIDSIAPKREKTQGEVERRIVSQLLTLMDGLKSRAHVIVMGATNRPNSIDPALRRFGRFDREIDITIPDATGRLEIMRIHTKNMKLDETVDLEAVANETHGYVGADLAALCTESALQCIREKMDVIDLEDETISAEILESMSVTQDHFRTALTLSNPSALRETVVEVPTTTWEDIGGLEGVKRELRETVQYPVEHPEKFRKFGMQPSKGVLFYGPPGCGKTLLAKAIANECQANFISIKGPELLTMWFGESEANVRELFDKARQAAPCVLFFDELDSIARSRGSSQGDAGGAGDRVINQILTEMDGMNAKKNVFIIGATNRPDIIDPAILRPGRLDQLIYIPLPDLPSRVAILKACLNKSPVAKDVDLEFLGQKTQGFSGADLTEICQRACKLAIRESIEKDIESTKARQESGDTKMEDDSVDPVPEITRDHFQEAMRSARRSVSDNDIRKYESFAQTLVQSRGLGNNFKFPDQESSGQFNQDQSDDLFSN
notes: AAA+ ATPase p97 (VCP), D. discoideum; purification as in Rijal et al., 2016; Whether p97 was made as a GST fusion and cleaved is not clearly said; also called VCP; source: E. coli XL1 Blue or ArcticExpress, purified
  stoichiometry N: 6 and 2

B2: UBXD9, full length, GST tag cleaved (natural protein, D. discoideum, UniProt Q54X06 1-573, looked up)
chain: MSSIHIIYKTGKTTVPVIASTVMMEVLKKACQYFKIDDSRFQLMYGSTYVNLSLPFRLSGIPNLSRVTIMEKKGASISTVKIAIQMDDGKRFQSNFKTSSTLWDILLTFETEQNLSLTKRFNDVNQYIEPVVTILNREISTIESLQKSSLASINVNEASLIKLTFKQTDRTNEEVLPIIVSYQSPSTPTESPTTTTTTTTTTTTNNTTKEESPKTTNSPTNSESSTKSQNSSGSQQSPIIISPPTQQSTSSDVSTPTMDIDSPLVKNVEKSPISDLGLNPSSNIPLPDKTYNNETTTTTTTTSNNDVQVSTPPKIATMDHKDRELLVYTPSNNQVDPKSIRHNEKMTEEDIKRLVEANKRVKKEKEEFDSVLRTKAMREREAYKKHKNFSTSIIRIVFPGGQKILEMKFLIREKISNLLKYINEYILAQPNDSVYLYTTPPNKTLDLNTTFLKEGLFPRAKIFLGVSPGTTLIFSELVNELIEESNNKNNNNNNNNNTTTTTTSTISQEELDKQEEEQERIEEQMKIEEEKQLKLEDEQEKERQRALRSMFNNEKEGDSQKRPVPKWFTAGKK
notes: The cleaved state is stated for the Blue Native PAGE; also called full-length UBXD9; source: E. coli XL1 Blue or ArcticExpress, purified, liberated from the beads with PreScission protease
  stoichiometry N: 6
